In the assay the target is T1, Recombinant human IL-5 (human, UniProt P05113 20-134).
T1 construct: also called human interleukin-5; hIL-5
T1 sequence (looked up): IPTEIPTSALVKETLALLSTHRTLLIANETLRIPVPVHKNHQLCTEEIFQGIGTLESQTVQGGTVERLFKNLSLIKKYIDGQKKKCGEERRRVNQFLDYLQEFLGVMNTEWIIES
As to the kind of experiment: BIAcore; antibody captured by polyclonal anti-human Fc, recombinant human IL-5 as analyte. The protocol:
Affinities of the chimeric and CDR grafted anti-IL-5 antibodies were determined using Biospecific Interaction Analysis (BIA). Antibodies were produced in CHO cells by transfection of combinations of heavy and light chain genes and purified from culture supernatants on Protein A Sepharose. […] The amount of anti-IL-5 captured for each run was approximately 1600 RU. Recombinant human IL-5 was then passed over the Sensorchip at various concentrations (0.6 to 5 µg/ml) in the above buffer. The Sensorchip was cleaned after each run with 100 mM HCl and 100 mM orthophosphoric acid to remove bound IL-5 and antibody. The sensorgrams generated were analysed using the kinetics software available with the BIAcore machine.
Background: Surface plasmon resonance follows binding to a sensor surface in real time, without labels.

B1: CTIL-5-10 gH/gL6 antibody (antibody, V domains shown)
VH: EVQLVESGGGLVQPGGSLRLSCAVSGLSLTSNSVNWIRQAPGKGLEWVGLIWSNGDTDYNSAIKSRFTISRDTSKSTVYLQMNSLRAEDTAVYYCAREYYGYFDYWGQGTLVTVSS
VL: DIQMTQSPSSLSASVGDRVTITCLASEGISSYLAWYQQKPGKAPKLLIYGANSLQTGVPSRFSGSGSATDYTLTISSLQPEDFATYYCQQSYKFPNTFGQGTKVEVKR
notes: Human constant domains; also called CTIL-5-10 gH/qL6; CDR grafted 39D10
In the case of B1, the binding result is “binds”.

The values are drawn from patent publication US6734286 (CELLTECH R AND D, dated 2004).
